Reference: PMC3229523, “Identification of Lactoferricin B Intracellular Targets Using an Escherichia coli Proteome Chip” (PLoS ONE, 2011)
Ends that are not written are not given here. * marks the point of attachment. Biotin = O=C1N[C@H]2[C@H](CS[C@H]2CCCCC(=O)*)N1

What was measured:
Test in all cases: peptide or protein array; E. coli proteome chip: purified His-tagged proteins printed in duplicate on Fullmoon slides, blocked with 1% BSA; 10 nM N-terminal biotinylated LfcinB with 1% BSA, room temperature, 1 h; detected with DyLight 649-labeled streptavidin, ratio to DyLight 549-labeled anti-His antibody; ProCAT normalisation, local cut-off; triplicate chips
Details in all cases: both partners purified
GlyQ = biological target: T1, GlyQ (E. coli K-12, UniProt P00960 1-303)
T1 construct: GlyQ, E. coli K-12
T1 sequence (looked up): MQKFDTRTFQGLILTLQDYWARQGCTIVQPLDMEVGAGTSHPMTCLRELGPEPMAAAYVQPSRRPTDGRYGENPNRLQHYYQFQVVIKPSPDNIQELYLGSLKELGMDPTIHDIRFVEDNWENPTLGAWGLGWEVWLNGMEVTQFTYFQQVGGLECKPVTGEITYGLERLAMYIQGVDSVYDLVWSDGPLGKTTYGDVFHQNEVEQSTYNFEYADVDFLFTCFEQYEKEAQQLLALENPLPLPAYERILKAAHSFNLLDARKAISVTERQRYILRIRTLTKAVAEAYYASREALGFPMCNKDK

AdiY = biological target: T2, AdiY (E. coli K-12, UniProt P33234 1-253)
T2 construct: AdiY, E. coli K-12
T2 sequence (looked up): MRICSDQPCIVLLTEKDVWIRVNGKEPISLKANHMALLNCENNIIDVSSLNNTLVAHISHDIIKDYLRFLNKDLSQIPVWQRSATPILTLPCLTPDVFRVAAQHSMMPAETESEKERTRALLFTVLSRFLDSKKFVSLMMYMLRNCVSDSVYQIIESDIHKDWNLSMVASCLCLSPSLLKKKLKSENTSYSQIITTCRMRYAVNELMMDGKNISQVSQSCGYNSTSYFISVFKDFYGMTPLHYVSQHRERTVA

SrmB = biological target: T3, SrmB (E. coli K-12, UniProt P21507 1-444)
T3 construct: SrmB, E. coli K-12
T3 sequence (looked up): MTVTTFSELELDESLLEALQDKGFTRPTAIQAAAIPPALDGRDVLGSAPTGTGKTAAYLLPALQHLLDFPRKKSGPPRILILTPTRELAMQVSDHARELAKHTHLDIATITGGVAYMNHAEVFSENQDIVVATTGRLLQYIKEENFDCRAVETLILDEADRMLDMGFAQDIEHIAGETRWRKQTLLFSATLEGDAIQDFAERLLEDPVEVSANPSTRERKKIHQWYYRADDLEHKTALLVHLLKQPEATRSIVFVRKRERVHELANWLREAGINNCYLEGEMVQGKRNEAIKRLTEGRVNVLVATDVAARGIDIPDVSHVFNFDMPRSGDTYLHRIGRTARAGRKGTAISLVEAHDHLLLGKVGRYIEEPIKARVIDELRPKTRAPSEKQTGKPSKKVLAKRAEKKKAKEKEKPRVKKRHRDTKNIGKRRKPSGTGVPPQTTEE

YnhE = biological target: T4, YnhE (E. coli K-12, UniProt P77522 1-495)
T4 construct: YnhE, E. coli K-12
T4 sequence (looked up): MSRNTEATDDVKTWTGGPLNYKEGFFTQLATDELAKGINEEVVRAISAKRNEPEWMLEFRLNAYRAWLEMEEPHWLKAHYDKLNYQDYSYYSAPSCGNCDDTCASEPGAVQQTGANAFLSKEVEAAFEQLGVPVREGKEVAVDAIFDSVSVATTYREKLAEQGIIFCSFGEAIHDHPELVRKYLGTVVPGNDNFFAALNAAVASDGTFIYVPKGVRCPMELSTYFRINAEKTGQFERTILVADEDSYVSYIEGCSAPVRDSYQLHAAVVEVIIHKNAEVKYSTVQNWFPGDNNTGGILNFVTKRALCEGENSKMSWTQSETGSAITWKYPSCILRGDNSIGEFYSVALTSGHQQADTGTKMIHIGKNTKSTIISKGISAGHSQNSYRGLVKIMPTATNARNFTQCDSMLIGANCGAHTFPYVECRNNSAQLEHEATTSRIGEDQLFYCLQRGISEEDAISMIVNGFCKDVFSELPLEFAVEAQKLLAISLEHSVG

DnaT = biological target: T5, DnaT (E. coli K-12, UniProt P0A8J2 1-179)
T5 construct: DnaT, E. coli K-12
T5 sequence (looked up): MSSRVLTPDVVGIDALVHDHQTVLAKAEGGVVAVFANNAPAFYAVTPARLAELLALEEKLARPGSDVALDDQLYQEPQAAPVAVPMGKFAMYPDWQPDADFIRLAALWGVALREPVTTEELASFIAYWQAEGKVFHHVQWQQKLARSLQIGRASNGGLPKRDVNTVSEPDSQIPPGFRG

Measured: binding result

B1: N-terminal biotinylated Lactoferricin B (peptide, UniProt P24627 36-60, looked up)
peptide: Biotin-FKCRRWQWRMKKLGAPSITCVRRAF
modifications: ends and bridges not checked
notes: lactoferricin B (LfcinB), cationic antimicrobial peptide of 25 amino acids; also called biotinylated LfcinB; biotin-labeled LfcinB; source: bought: Kelowna Inc
binds: GlyQ | AdiY | SrmB | YnhE | DnaT
